Experimental data published in paper PMC9352680, “A comprehensive thermodynamic model for RNA binding by the Saccharomyces cerevisiae Pumilio protein PUF4”.
Numbering of substitutions follows the chain as printed. Names may count otherwise.

B1: Ic_S2_P4E.1_K4.1_C4.1_H4.1_A4.1_[T5A]_[A6T]_[T7A]_F4.1_T4.1 (ssRNA)
RNA: UUUGAUUAAUAUGAUAUCGUUCUUUCUUGUAAUAUAUUCUUUCUCGAUAUCAUAUUAAUCUUU
B2: Ic_S2_P4E.1_K4.1_C4.1_H4.1_A4.1_[T5A]_[T7C]_F4.1_[A9C]_T4.1 (ssRNA)
RNA: B1 RNA with U33A, A34C, A36C
B3: Ic_S2_P4E.1_K4.1_C4.1_H4.1_A4.1_[A6G]_F4.1_[T8A]_[A9C]_T4.1 (ssRNA)
RNA: B1 RNA with A32U, U33G, A34U, U35A, A36C
B4: Ic_S2_P4E.1_K4.1_C4.1_H4.1_A4.1_[T5A]_[T7C]_F4.1_[T8A]_[A9G]_T4.1 (ssRNA)
RNA: B1 RNA with U33A, A34C, U35A, A36G
B5: Ic_S2_P4E.1_K4.1_C4.1_H4.1_A4.1_[A6G]_[T7C]_F4.1_[T8A]_[A9C]_T4.1 (ssRNA)
RNA: B1 RNA with A32U, U33G, A34C, U35A, A36C
B6: Ic_S2_P4E.1_K4.1_C4.1_H4.1_A4.1_[A6C]_[T7C]_F4.1_[A9C]_T4.1 (ssRNA)
RNA: B1 RNA with A32U, U33C, A34C, A36C
B7: Ic_S2_P4E.1_K4.1_C4.1_H4.1_A4.1_[A6G]_[T7G]_F4.1_[A9T]_T4.1 (ssRNA)
RNA: B1 RNA with A32U, U33G, A34G, A36U
B8: Ic_S2_P4E.1_K4.1_C4.1_H4.1_A4.1_[A6G]_[T7C]_F4.1_[T8G]_[A9G]_T4.1 (ssRNA)
RNA: B1 RNA with A32U, U33G, A34C, U35G, A36G
B9: Ic_S2_P4E.1_K4.1_C4.1_H4.1_A4.1_[T5A]_F4.1_[T8A]_[A9G]_T4.1 (ssRNA)
RNA: B1 RNA with U33A, A34U, U35A, A36G
B10: Ic_S2_P4E.1_K4.1_C4.1_H4.1_A4.1_[A6C]_[T7C]_F4.1_[T8C]_[A9T]_T4.1 (ssRNA)
RNA: B1 RNA with A32U, U33C, A34C, U35C, A36U
B11: Ic_S2_P4E.1_K4.1_C4.1_H4.1_A4.1_[A6G]_[T7G]_F4.1_[T8C]_[A9T]_T4.1 (ssRNA)
RNA: B1 RNA with A32U, U33G, A34G, U35C, A36U
B12: Ic_S2_P4E.1_K4.1_C4.1_H4.1_A4.1_[A6G]_F4.1_[T8A]_[A9T]_T4.1 (ssRNA)
RNA: B1 RNA with A32U, U33G, A34U, U35A, A36U
B13: Ic_S2_P4E.1_K4.1_C4.1_H4.1_A4.1_[T5A]_[T7C]_F4.1_[A9G]_T4.1 (ssRNA)
RNA: B1 RNA with U33A, A34C, A36G
B14: Ic_S2_P4E.1_K4.1_C4.1_H4.1_A4.1_[T5A]_[A6T]_[T7A]_F4.1_[A9G]_T4.1 (ssRNA)
RNA: B1 RNA with A36G
B15: Ic_S2_P4E.1_K4.1_C4.1_H4.1_A4.1_[T5A]_[A6T]_F4.1_[T8G]_[A9T]_T4.1 (ssRNA)
RNA: B1 RNA with A34U, U35G, A36U
B16: Ic_S2_P4E.1_K4.1_C4.1_H4.1_A4.1_[A6C]_[T7A]_F4.1_[T8C]_[A9G]_T4.1 (ssRNA)
RNA: B1 RNA with A32U, U33C, U35C, A36G
B17: Ic_S2_P4E.1_K4.1_C4.1_H4.1_A4.1_[A6G]_F4.1_[T8C]_[A9C]_T4.1 (ssRNA)
RNA: B1 RNA with A32U, U33G, A34U, U35C, A36C
B18: Ic_S2_P4E.1_K4.1_C4.1_H4.1_A4.1_[T5A]_[A6T]_F4.1_[T8C]_[A9C]_T4.1 (ssRNA)
RNA: B1 RNA with A34U, U35C, A36C
B19: Ic_S2_P4E.1_K4.1_C4.1_H4.1_A4.1_[T5A]_[T7C]_F4.1_[T8C]_[A9T]_T4.1 (ssRNA)
RNA: B1 RNA with U33A, A34C, U35C, A36U
B20: Ic_S2_P4E.1_K4.1_C4.1_H4.1_A4.1_[A6G]_F4.1_[T8G]_[A9C]_T4.1 (ssRNA)
RNA: B1 RNA with A32U, U33G, A34U, U35G, A36C
B21: Ic_S2_P4E.1_K4.1_C4.1_H4.1_A4.1_[T5A]_[T7A]_F4.1_[T8C]_[A9C]_T4.1 (ssRNA)
RNA: B1 RNA with U33A, U35C, A36C
B22: Ic_S2_P4E.1_K4.1_C4.1_H4.1_A4.1_[A6C]_[T7C]_F4.1_[T8A]_[A9C]_T4.1 (ssRNA)
RNA: B1 RNA with A32U, U33C, A34C, U35A, A36C
B23: Ic_S2_P4E.1_K4.1_C4.1_H4.1_A4.1_[T5A]_[A6T]_[T7A]_F4.1_[T8A]_T4.1 (ssRNA)
RNA: B1 RNA with U35A
B24: Ic_S2_P4E.1_K4.1_C4.1_H4.1_A4.1_[A6C]_[T7G]_F4.1_[A9G]_T4.1 (ssRNA)
RNA: B1 RNA with A32U, U33C, A34G, A36G
B25: Ic_S2_P4E.1_K4.1_C4.1_H4.1_A4.1_[A6C]_[T7C]_F4.1_[T8G]_[A9G]_T4.1 (ssRNA)
RNA: B1 RNA with A32U, U33C, A34C, U35G, A36G
B26: Ic_S2_P4E.1_K4.1_C4.1_H4.1_A4.1_[A6C]_[T7G]_F4.1_[A9C]_T4.1 (ssRNA)
RNA: B1 RNA with A32U, U33C, A34G, A36C

What follows are binders tested against T1, PUF4 RNA-binding domain (Saccharomyces cerevisiae, UniProt P25339 537-888) (assay: Mg; RNA-MaP; 20 mM Na-HEPES pH 7.4, 30 mM KOAc, 0.75 mM MgCl2, 0.1% Tween-20, 5% glycerol, 0.1 mg/mL BSA, 2 mM DTT; 25 C; 0.0125-409.6 nM protein). Settings: tags: N-His6-TEV cleaved; C-SNAP kept, Cy3B-labelled; label: tethered on chip by stalled RNA polymerase.
T1 sequence: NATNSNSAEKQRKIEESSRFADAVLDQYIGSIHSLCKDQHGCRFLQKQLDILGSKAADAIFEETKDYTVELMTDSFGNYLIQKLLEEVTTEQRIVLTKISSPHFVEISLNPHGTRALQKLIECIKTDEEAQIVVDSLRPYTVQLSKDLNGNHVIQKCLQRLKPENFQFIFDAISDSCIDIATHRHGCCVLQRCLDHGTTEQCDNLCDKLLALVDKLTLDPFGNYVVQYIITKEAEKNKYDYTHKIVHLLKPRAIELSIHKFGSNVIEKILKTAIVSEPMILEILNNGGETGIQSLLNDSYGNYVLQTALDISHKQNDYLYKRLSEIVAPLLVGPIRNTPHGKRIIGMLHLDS

Binder	Kd [nM]
B1	1.45
B2	26.1
B3	55.8
B4	1140
B5	848
B6	27.5
B7	224
B8	1310
B9	67.7
B10	166
B11	619
B12	26.9
B13	18.3
B14	11.1
B15	117
B16	228
B17	32.5
B18	315
B19	242
B20	40
B21	385
B22	820
B23	56
B24	59.3
B25	866
B26	507
UCUCUUCGUAUAUUAUCUCUU (ssRNA) [Ia_S1_P4E.1_K4.1_C4.1_H4.1_[T1C]_A4.1_F4.1_T4.1]	20.9
UCUCUUUGUAUAUGGUCUCUU (ssRNA) [Ib_S1_P4E.1_K4.1_C4.1_H4.1_A4.1_F4.1_[T8G]_[A9G]_T4.1]	47.2
UCUCUUUGUAUAUCGUCUCUU (ssRNA) [Ib_S1_P4E.1_K4.1_C4.1_H4.1_A4.1_F4.1_[T8C]_[A9G]_T4.1]	26.1
